Measured values published in IntAct's records for PubMed 14528310.

Target: Homer1, Q9Z214-1
Sequence (Q9Z214 whole entry): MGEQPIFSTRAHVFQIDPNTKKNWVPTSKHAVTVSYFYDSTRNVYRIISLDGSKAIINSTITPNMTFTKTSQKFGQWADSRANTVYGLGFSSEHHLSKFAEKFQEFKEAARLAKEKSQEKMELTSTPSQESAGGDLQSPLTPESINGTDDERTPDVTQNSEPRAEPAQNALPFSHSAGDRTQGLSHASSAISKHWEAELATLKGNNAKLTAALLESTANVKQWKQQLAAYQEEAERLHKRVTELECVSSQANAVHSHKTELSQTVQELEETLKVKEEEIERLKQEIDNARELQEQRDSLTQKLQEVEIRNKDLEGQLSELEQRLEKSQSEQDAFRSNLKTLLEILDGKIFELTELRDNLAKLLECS

Arf-GAP with GTPase, ANK repeat and PH domain-containing protein 2 (Rattus norvegicus (Rat)), Q8CGU4 P187L
effect of a mutation on the interaction: disrupting interaction
